Experimental data reported in publication PMC10683472, “Deep Learning-Driven Library Design for the De Novo Discovery of Bioactive Thiopeptides” (ACS Central Science, 2023).

Target: T1, IRAK4 (Homo sapiens, UniProt Q9NWZ3)
T1 sequence (Q9NWZ3 1-460): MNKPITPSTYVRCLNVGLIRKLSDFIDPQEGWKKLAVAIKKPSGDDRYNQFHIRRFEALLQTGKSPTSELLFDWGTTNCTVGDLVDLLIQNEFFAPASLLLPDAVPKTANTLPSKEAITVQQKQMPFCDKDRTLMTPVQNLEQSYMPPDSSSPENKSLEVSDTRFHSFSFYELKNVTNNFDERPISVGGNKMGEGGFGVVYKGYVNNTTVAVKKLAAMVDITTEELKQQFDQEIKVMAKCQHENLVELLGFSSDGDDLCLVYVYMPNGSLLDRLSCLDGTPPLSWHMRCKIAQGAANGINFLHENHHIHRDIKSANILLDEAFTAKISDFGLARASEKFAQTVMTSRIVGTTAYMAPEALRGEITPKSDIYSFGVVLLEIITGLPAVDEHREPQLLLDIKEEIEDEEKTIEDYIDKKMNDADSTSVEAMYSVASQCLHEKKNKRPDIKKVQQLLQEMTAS
Experiment: mRNA display affinity selection against IRAK4, NGS abundance
Format: binding
Parameters: acids 1-460; NP_057207.2) was purchased from Carna Biosciences; purchased Carna Biosciences (Kobe, Japan)
Settings: Top100 selection hits, NGS

Row | Sequence | Library fraction (IRAK4 selection pulldown (+)) | Raw reads (IRAK4 selection pulldown (+)) | Library fraction (IRAK4 selection pulldown (-)) | Raw reads (IRAK4 selection pulldown (-))
1 | SQRYKQRCYK | 0.0017 | 182 | 0.0012 | 160
2 | SVLWRKRIYR | 0.0037 | 391 | 0.00143 | 191
3 | AIRWKNRNYK | 0.0009 | 95 | 0.00032 | 43
4 | SLLWKRRVYC | 0.0007 | 78 | 0.00057 | 76
5 | TQRVRNRCYK | 0.013 | 1424 | 0.00437 | 584
6 | AQRWRQKCYK | 0.0002 | 19 | – | –
7 | TQRWKCRLYR | 0.0001 | 12 | – | –
8 | AMSLYWARRRPH | 0.0028 | 304 | 0.00857 | 1144
9 | SVCWKRRNCH | 0.0002 | 24 | 0.00016 | 22
10 | SMERKAITWLWT | – | – | 0.00019 | 25
11 | SLRWKNRNHK | 0.0006 | 62 | 0.00013 | 17
12 | CQCWNRRNWT | 0.0003 | 35 | 0.00037 | 49
13 | TQRYRWRNYK | 0.0001 | 9 | – | –
14 | SLLWKRRCYN | 0.0038 | 409 | 0.00172 | 230
15 | SQRYRNRNYQ | 0.0023 | 242 | 0.00064 | 85
16 | AQYWKRRLWR | 0.0001 | 9 | – | –
17 | TQRWKRRNYT | 0.0013 | 136 | 0.0006 | 80
18 | SVLWKRKIHN | 0.0012 | 125 | 0.001 | 137
19 | RQRWRGRKYH | 0.0001 | 8 | 0.00011 | 15
20 | RMLWKRRMWH | 0.0011 | 118 | 0.00041 | 55
21 | RTFWRRRRYH | 0.0004 | 44 | 0.00039 | 52
22 | AMLWKRRLWR | 0.0005 | 57 | 0.00051 | 68
23 | RLCYKRRNWQ | – | – | 0.00013 | 17
24 | SQLCHRRIYK | 0.0001 | 12 | – | –

Row | Sequence | Library fraction (IRAK4 selection pulldown (+)) | Raw reads (IRAK4 selection pulldown (+)) | Library fraction (IRAK4 selection pulldown (-)) | Raw reads (IRAK4 selection pulldown (-))
25 | RLLWKHRLYA | – | – | 8e-5 | 11
26 | TLLWKRRNWA | 0.0007 | 76 | 0.00043 | 57
27 | TQYWKRRIYN | 0.007 | 748 | 0.00241 | 322
28 | SMLFKRRMYK | 0.0003 | 27 | 0.00019 | 26
29 | RILWRRRRYH | 0.0009 | 95 | 0.00044 | 59
30 | SILWKKRVWK | 0.016 | 1700 | 0.009 | 1218
31 | SMKRPFITWHWT | – | – | 9e-5 | 12
32 | TLLWKRRIYK | 0.0019 | 207 | 0.00132 | 176
33 | SLYWKSRIWR | 0.0026 | 283 | 0.00072 | 96
34 | SIFWRRRIYK | 0.002 | 228 | 0.00048 | 64
35 | ALLWRRRNYH | 0.0006 | 61 | 0.00021 | 28
36 | CQRWKRRCYM | 0.0007 | 76 | 0.00053 | 71
37 | TMKRIVINWGWG | – | – | 0.0001 | 14
38 | SMERQFITWHWT | – | – | 0.00013 | 17
39 | SRLWRRRIFQ | 0.0001 | 10 | 9e-5 | 12
40 | SMHRRYITWRWT | – | – | 0.115 | 15412
41 | TQRWKHRLYK | 0.0006 | 68 | 0.00032 | 43
42 | SMKRKFITWHWT | – | – | 7e-5 | 10
43 | SVFWNRRIYK | 0.0006 | 68 | 0.00016 | 21
44 | SVLWKRRIWK | 0.033 | 3569 | 0.020 | 2704
45 | SMLWKRKIWG | 0.0047 | 498 | 0.00177 | 237
46 | SVRWKHRIYK | 0.0003 | 29 | 0.00012 | 16
47 | TADGLILTPWVT | 0.0001 | 15 | 0.00281 | 375
48 | SMKRQLITWHWT | – | – | 0.00037 | 50

The next lines start with the values.

Row | Library fraction (IRAK4 selection pulldown (+)) | Raw reads (IRAK4 selection pulldown (+)) | Library fraction (IRAK4 selection pulldown (-)) | Raw reads (IRAK4 selection pulldown (-)) | Sequence
49 | 0.211 | 22521 | 0.165 | 22079 | SMLFKRRIYK
50 | – | – | 8e-5 | 11 | SMKRRFITWHWT
51 | 0.0001 | 14 | – | – | GPLLWNTRIYC
52 | 0.0001 | 11 | 0.00049 | 66 | ARLWRRRIYQ
53 | 0.003 | 312 | 0.00109 | 146 | SLLWRKRIYR
54 | 0.005 | 541 | 0.00216 | 289 | SIVWKRRIYR
55 | 0.0002 | 20 | – | – | RTRWKCKMYH
56 | 0.0001 | 10 | – | – | TCLWKRRIYS
57 | – | – | 0.00015 | 20 | SMKRQFITWRWT
58 | – | – | 0.0001 | 14 | CQRIGRRNYS
59 | 0.0009 | 95 | 0.00027 | 36 | SLLWKKRMYK
60 | – | – | 7e-5 | 9 | SMKRQFITRHWT
61 | – | – | 8e-5 | 11 | RQRWRSRDYA
62 | 0.0001 | 9 | – | – | SQLYKRRIWM
63 | 0.0001 | 14 | – | – | STYRKRRIWY
64 | 0.0003 | 29 | 0.00014 | 19 | TQRWNNRNWC
65 | 0.0001 | 12 | 0.00025 | 33 | TQRYLSKNYK
66 | 0.044 | 4661 | 0.029 | 3881 | TMLWKRRIYR
67 | 0.013 | 1364 | 0.010 | 1401 | SQRWRNRNYR
68 | 0.0002 | 23 | – | – | STYWKSRIYT
69 | 0.0009 | 98 | 0.00106 | 142 | RLLWRRRNYA
70 | 0.0076 | 814 | 0.00332 | 444 | RTYWKRRCYA
71 | 0.026 | 2745 | 0.018 | 2408 | TLCWKRRTWK
72 | 0.0005 | 54 | 0.00019 | 26 | STLWNKKIYK
73 | 0.0011 | 116 | 0.002 | 267 | SQRWRCRNYQ
74 | 0.0004 | 39 | 0.00016 | 22 | STRWKRRNYT
75 | 0.0001 | 14 | – | – | AMRWRNRCYK
76 | 0.0001 | 9 | – | – | TQRWKQKNWS
77 | 0.005 | 525 | 0.00324 | 433 | SLLWKQRVWK
